Test results reported in patent publication US20230235000A1.

Biological target: recombinant mutant SOD1-G93A (His-tag) (human) (UniProt P00441)
Test: cell-based or functional assay

recombinant mutant SOD1-G93A (His-tag) (human), sequence (P00441 whole entry, stated change not applied): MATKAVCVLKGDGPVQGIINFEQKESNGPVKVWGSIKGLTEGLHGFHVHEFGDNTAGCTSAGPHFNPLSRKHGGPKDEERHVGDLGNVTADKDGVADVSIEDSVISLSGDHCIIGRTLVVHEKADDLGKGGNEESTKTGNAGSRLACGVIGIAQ

**Q.** Which filter trap density of pre-aggregated SOD1 G93A after 8 µM FAIM for 2.5 hr (fraction of buffer control) does the source give for “recombinant human FAIM-S (His-tag) (from UniProt Q9NVQ4 1-179)” here?
**A.** 0.5
